Reference: IntAct's records for PubMed 23809763

B1: R-spondin-1 (Homo sapiens), Q2MKA7 (parent)
chain: MRLGLCVVALVLSWTHLTISSRGIKGKRQRRISAEGSQACAKGCELCSEVNGCLKCSPKLFILLERNDIRQVGVCLPSCPPGYFDARNPDMNKCIKCKIEHCEACFSHNFCTKCKEGLYLHKGRCYPACPEGSSAANGTMECSSPAQCEMSEWSPWGPCSKKQQLCGFRRGSEERTRRVLHAPVGDHAACSDTKETRRCTVRRVPCPEGQKRRKGGQGRRENANRNLARKESKEAGAGSRRRKGQQQQQQQGTVGPLTSAGPA
partner: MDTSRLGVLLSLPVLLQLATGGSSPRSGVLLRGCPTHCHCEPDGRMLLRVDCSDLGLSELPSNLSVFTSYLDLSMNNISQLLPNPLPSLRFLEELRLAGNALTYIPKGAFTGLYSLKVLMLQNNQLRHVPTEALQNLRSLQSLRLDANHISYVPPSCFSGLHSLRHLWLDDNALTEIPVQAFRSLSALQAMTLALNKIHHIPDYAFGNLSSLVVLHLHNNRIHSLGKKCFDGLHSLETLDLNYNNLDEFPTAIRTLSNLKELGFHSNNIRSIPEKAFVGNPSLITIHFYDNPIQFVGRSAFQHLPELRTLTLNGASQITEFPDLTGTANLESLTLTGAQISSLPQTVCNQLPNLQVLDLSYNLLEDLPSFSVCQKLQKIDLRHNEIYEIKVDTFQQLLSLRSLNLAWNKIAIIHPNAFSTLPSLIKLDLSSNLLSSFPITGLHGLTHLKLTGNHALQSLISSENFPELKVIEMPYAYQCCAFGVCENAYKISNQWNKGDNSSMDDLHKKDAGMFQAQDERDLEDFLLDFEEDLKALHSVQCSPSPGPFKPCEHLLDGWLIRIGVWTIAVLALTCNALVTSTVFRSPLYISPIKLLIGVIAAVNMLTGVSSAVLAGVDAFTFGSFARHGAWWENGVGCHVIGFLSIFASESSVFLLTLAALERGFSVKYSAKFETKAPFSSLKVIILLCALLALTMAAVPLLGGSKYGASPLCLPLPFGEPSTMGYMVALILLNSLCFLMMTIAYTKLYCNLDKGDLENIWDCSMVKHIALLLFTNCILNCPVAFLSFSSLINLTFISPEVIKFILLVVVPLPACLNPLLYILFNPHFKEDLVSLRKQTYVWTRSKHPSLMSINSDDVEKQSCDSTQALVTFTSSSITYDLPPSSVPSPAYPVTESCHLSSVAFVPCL

Variants of: B1
Details: with lgr5_human LGR5, O75473

Variant | effect of a mutation on the interaction
MRLGLCVVALVLSWTHLTISSRGIKGKRQRRISAEGSQACAKGCELCSEVNGCLKCSPKLFILLEANDIRQVGVCLPSCPPGYFDARNPDMNKCIKCKIEHCEACFSHNFCTKCKEGLYLHKGRCYPACPEGSSAANGTMECSSPAQCEMSEWSPWGPCSKKQQLCGFRRGSEERTRRVLHAPVGDHAACSDTKETRRCTVRRVPCPEGQKRRKGGQGRRENANRNLARKESKEAGAGSRRRKGQQQQQQQGTVGPLTSAGPA [R66A] | with no effect
MRLGLCVVALVLSWTHLTISSRGIKGKRQRRISAEGSQACAKGCELCSEVNGCLKCSPKLFILLEWNDIRQVGVCLPSCPPGYFDARNPDMNKCIKCKIEHCEACFSHNFCTKCKEGLYLHKGRCYPACPEGSSAANGTMECSSPAQCEMSEWSPWGPCSKKQQLCGFRRGSEERTRRVLHAPVGDHAACSDTKETRRCTVRRVPCPEGQKRRKGGQGRRENANRNLARKESKEAGAGSRRRKGQQQQQQQGTVGPLTSAGPA [R66W] | with no effect
MRLGLCVVALVLSWTHLTISSRGIKGKRQRRISAEGSQACAKGCELCSEVNGCLKCSPKLFILLERNDIREVGVCLPSCPPGYFDARNPDMNKCIKCKIEHCEACFSHNFCTKCKEGLYLHKGRCYPACPEGSSAANGTMECSSPAQCEMSEWSPWGPCSKKQQLCGFRRGSEERTRRVLHAPVGDHAACSDTKETRRCTVRRVPCPEGQKRRKGGQGRRENANRNLARKESKEAGAGSRRRKGQQQQQQQGTVGPLTSAGPA [Q71E] | with no effect
MRLGLCVVALVLSWTHLTISSRGIKGKRQRRISAEGSQACAKGCELCSEVNGCLKCSPKLFILLERNDIRRVGVCLPSCPPGYFDARNPDMNKCIKCKIEHCEACFSHNFCTKCKEGLYLHKGRCYPACPEGSSAANGTMECSSPAQCEMSEWSPWGPCSKKQQLCGFRRGSEERTRRVLHAPVGDHAACSDTKETRRCTVRRVPCPEGQKRRKGGQGRRENANRNLARKESKEAGAGSRRRKGQQQQQQQGTVGPLTSAGPA [Q71R] | with no effect
MRLGLCVVALVLSWTHLTISSRGIKGKRQRRISAEGSQACAKGCELCSEVNGCLKCSPKLFILLERNDICQVGVCLPSCPPGYFDARNPDMNKCIKCKIEHCEACFSHNFCTKCKEGLYLHKGRCYPACPEGSSAANGTMECSSPAQCEMSEWSPWGPCSKKQQLCGFRRGSEERTRRVLHAPVGDHAACSDTKETRRCTVRRVPCPEGQKRRKGGQGRRENANRNLARKESKEAGAGSRRRKGQQQQQQQGTVGPLTSAGPA [R70C] | with no effect
MRLGLCVVALVLSWTHLTISSRGIKGKRQRRISAEGSQACAKGCELCSEVNGCLKCSPKLFILLERNDIAQVGVCLPSCPPGYFDARNPDMNKCIKCKIEHCEACFSHNFCTKCKEGLYLHKGRCYPACPEGSSAANGTMECSSPAQCEMSEWSPWGPCSKKQQLCGFRRGSEERTRRVLHAPVGDHAACSDTKETRRCTVRRVPCPEGQKRRKGGQGRRENANRNLARKESKEAGAGSRRRKGQQQQQQQGTVGPLTSAGPA [R70A] | decreasing interaction strength
MRLGLCVVALVLSWTHLTISSRGIKGKRQRRISAEGSQACAKGCELCSEVNGCLKCSPKLFILLERNDIEQVGVCLPSCPPGYFDARNPDMNKCIKCKIEHCEACFSHNFCTKCKEGLYLHKGRCYPACPEGSSAANGTMECSSPAQCEMSEWSPWGPCSKKQQLCGFRRGSEERTRRVLHAPVGDHAACSDTKETRRCTVRRVPCPEGQKRRKGGQGRRENANRNLARKESKEAGAGSRRRKGQQQQQQQGTVGPLTSAGPA [R70E] | with no effect

The next lines start with the values.

effect of a mutation on the interaction | Variant
with no effect | MRLGLCVVALVLSWTHLTISSRGIKGKRQRRISAEGSQACAKGCELCSEVNGCLKCSPKLFILLERNDIRQVEVCLPSCPPGYFDARNPDMNKCIKCKIEHCEACFSHNFCTKCKEGLYLHKGRCYPACPEGSSAANGTMECSSPAQCEMSEWSPWGPCSKKQQLCGFRRGSEERTRRVLHAPVGDHAACSDTKETRRCTVRRVPCPEGQKRRKGGQGRRENANRNLARKESKEAGAGSRRRKGQQQQQQQGTVGPLTSAGPA [G73E]
with no effect | MRLGLCVVALVLSWTHLTISSRGIKGKRQRRISAEGSQACAKGCELCSEVNGCLKCSPKLFILLERNDIRQVRVCLPSCPPGYFDARNPDMNKCIKCKIEHCEACFSHNFCTKCKEGLYLHKGRCYPACPEGSSAANGTMECSSPAQCEMSEWSPWGPCSKKQQLCGFRRGSEERTRRVLHAPVGDHAACSDTKETRRCTVRRVPCPEGQKRRKGGQGRRENANRNLARKESKEAGAGSRRRKGQQQQQQQGTVGPLTSAGPA [G73R]
disrupting interaction strength | MRLGLCVVALVLSWTHLTISSRGIKGKRQRRISAEGSQACAKGCELCSEVNGCLKCSPKLFILLERNDIRQVGVCLPSCPPGYFDARNPDMNKCIKCKIEHCEACFSHNECTKCKEGLYLHKGRCYPACPEGSSAANGTMECSSPAQCEMSEWSPWGPCSKKQQLCGFRRGSEERTRRVLHAPVGDHAACSDTKETRRCTVRRVPCPEGQKRRKGGQGRRENANRNLARKESKEAGAGSRRRKGQQQQQQQGTVGPLTSAGPA [F110E]
with no effect | MRLGLCVVALVLSWTHLTISSRGIKGKRQRRISAEGSQACAKGCELCSEVNGCLKCSPKLFILLERNDIRQVGVCLPSCPPEYFDARNPDMNKCIKCKIEHCEACFSHNFCTKCKEGLYLHKGRCYPACPEGSSAANGTMECSSPAQCEMSEWSPWGPCSKKQQLCGFRRGSEERTRRVLHAPVGDHAACSDTKETRRCTVRRVPCPEGQKRRKGGQGRRENANRNLARKESKEAGAGSRRRKGQQQQQQQGTVGPLTSAGPA [G82E]
disrupting interaction strength | MRLGLCVVALVLSWTHLTISSRGIKGKRQRRISAEGSQACAKGCELCSEVNGCLKCSPKLFILLERNDIRQVGVCLPSCPPGYFDARNPDMNKCIKCKIEHCEACESHNFCTKCKEGLYLHKGRCYPACPEGSSAANGTMECSSPAQCEMSEWSPWGPCSKKQQLCGFRRGSEERTRRVLHAPVGDHAACSDTKETRRCTVRRVPCPEGQKRRKGGQGRRENANRNLARKESKEAGAGSRRRKGQQQQQQQGTVGPLTSAGPA [F106E]
